Test results taken from patent US20160194394A1 (GOVERNING COUNCIL OF THE UNIVERSITY OF TORONTO, published 2016).
Substitutions are numbered along the chain they refer to. Where two headings read alike, the source gives them in different places. One block for each binder: values may come before it.

Tests used:
[1] = target: recombinant Frizzled receptor 7 (FZD7) cysteine-rich domain (CRD) fused to the Fc region of human IgG (human, UniProt O75084 33-185); assay: SPR
[2] = target: T1, FZD7 receptor expressed on cells (full-length) (UniProt O75084 33-574, limits assumed); assay: cell-based or functional assay
[3] = target: T2, recombinant Frizzled receptor 7 (FZD7) cysteine-rich domain (CRD) fused to the Fc region of human IgG (human, UniProt O75084 33-185); assay: competitive ELISA, detected phage-Fab E8
[4] = target: T1, FZD7 receptor expressed on cells …; assay: cell-based or functional assay; remark: listed apart in the source
[5] = target: T2, recombinant Frizzled receptor 7 (FZD7) …; assay: competitive ELISA, detected phage-Fab G6
[6] = target: T2, recombinant Frizzled receptor 7 (FZD7) …; assay: competitive ELISA, detected phage-Fab E4
[7] = target: T1, FZD7 receptor expressed on cells …; assay: flow cytometry, 200 nM Fab, MDA MB 231 [cont'd]
How it was run: (§1)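 EDTA-harvested MDA MB 231 cells, either FZD7-overexpressing or with endogenous receptor, were blocked in 2% FBS/PBS and stained with Fab for 30 min on ice. Detection used anti-F(ab′)₂-APC (1:1000, 15 min on ice), then 1% paraformaldehyde fixation and flow cytometry. Values are percent of cells in positive gates.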

[8] = target: T2, recombinant Frizzled receptor 7 (FZD7) …; assay: ELISA, 10ug/ml (200nM) Fab [cont'd]
How it was run: (§2)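 Plates coated with 2 ug/ml FZD7-Fc or Fc protein were probed with bacterially expressed purified Fabs for 1 h at room temperature in 0.5% BSA/0.05% Tween20/PBS. Bound Fab detected with anti-FLAG-HRP for 45 min, developed with TMB and acid stop, and read as absorbance at 450 nm; n.t. = not tested.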

[9] = target: T2, recombinant Frizzled receptor 7 (FZD7) …; assay: competitive ELISA, detected phage-Fab G2
[10] = target: T2, recombinant Frizzled receptor 7 (FZD7) …; assay: competitive ELISA, detected phage-Fab A1
[11] = target: T2, recombinant Frizzled receptor 7 (FZD7) …; assay: competitive ELISA, detected phage-Fab H1
[12] = target: T2, recombinant Frizzled receptor 7 (FZD7) …; assay: competitive ELISA, detected phage-Fab H10
[13] = target: T1, FZD7 receptor expressed on cells …; assay: flow cytometry, 200 nM Fab, FZD7 over-expression line (MDA MB 231) [cont'd]
How it was run: as §1

[14] = target: T2, recombinant Frizzled receptor 7 (FZD7) …; assay: ELISA, 1ug/ml (20nM) Fab [cont'd]
How it was run: as §2

[15] = target: T2, recombinant Frizzled receptor 7 (FZD7) …; assay: competitive ELISA, detected phage-Fab H3
[16] = target: T2, recombinant Frizzled receptor 7 (FZD7) …; assay: competitive ELISA, detected phage-Fab D10
human Fzd1-Fc = target: T3, human Fzd1-Fc; assay: SPR
T3 construct: also called FZD1 ECD; Fzd1 CRD-Fc fusion protein (R&D systems); not shown: exact vendor limits of the CRD construct
T3 sequence (chain, as listed by the source limits assumed): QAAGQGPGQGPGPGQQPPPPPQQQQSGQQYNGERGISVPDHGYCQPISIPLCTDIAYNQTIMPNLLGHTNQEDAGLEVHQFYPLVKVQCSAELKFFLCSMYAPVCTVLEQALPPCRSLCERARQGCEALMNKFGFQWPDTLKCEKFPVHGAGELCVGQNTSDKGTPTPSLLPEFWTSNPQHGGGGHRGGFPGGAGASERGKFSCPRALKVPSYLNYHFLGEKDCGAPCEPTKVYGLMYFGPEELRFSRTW

[17] = target: T2, recombinant Frizzled receptor 7 (FZD7) …; assay: SPR; remark: listed apart in the source
mouse Fzd2-Fc = target: T4, mouse Fzd2-Fc; assay: SPR
T4 construct: also called mFZD2 ECD; Fzd2 CRD-Fc fusion protein (R&D systems); not shown: exact vendor limits of the CRD construct
T4 sequence (chain, as listed by the source limits assumed): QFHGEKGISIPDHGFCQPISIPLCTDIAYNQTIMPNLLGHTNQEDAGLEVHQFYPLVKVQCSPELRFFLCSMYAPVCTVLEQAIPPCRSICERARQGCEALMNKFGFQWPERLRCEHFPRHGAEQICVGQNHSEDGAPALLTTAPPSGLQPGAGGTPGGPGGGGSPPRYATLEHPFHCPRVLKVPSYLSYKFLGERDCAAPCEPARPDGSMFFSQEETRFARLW

[18] = target: T2, recombinant Frizzled receptor 7 (FZD7) …; assay: SPR; remark: listed apart in the source
human Fzd5-Fc = target: T5, human Fzd5-Fc; assay: SPR
T5 construct: also called FZD5 ECD; Fzd5 CRD-Fc fusion protein (R&D systems); not shown: exact vendor limits of the CRD construct
T5 chain: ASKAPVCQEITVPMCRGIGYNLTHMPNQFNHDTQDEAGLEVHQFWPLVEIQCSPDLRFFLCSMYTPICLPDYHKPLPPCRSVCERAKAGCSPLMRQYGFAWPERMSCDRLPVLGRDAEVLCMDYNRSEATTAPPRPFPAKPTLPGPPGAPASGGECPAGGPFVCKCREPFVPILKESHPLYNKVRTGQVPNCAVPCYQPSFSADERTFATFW

human Fzd8-Fc = target: T6, human Fzd8-Fc; assay: SPR
T6 construct: also called FZD8 ECD; Fzd8 CRD-Fc fusion protein (R&D systems); not shown: exact vendor limits of the CRD construct
T6 chain: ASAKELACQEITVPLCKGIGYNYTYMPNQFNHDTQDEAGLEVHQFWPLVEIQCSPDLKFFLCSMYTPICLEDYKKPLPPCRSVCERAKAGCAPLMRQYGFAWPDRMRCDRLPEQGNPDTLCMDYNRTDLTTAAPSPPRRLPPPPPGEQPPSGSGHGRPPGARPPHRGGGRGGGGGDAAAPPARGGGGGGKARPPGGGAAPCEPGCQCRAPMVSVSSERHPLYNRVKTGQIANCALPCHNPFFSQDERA

B1: IgG D10 (antibody, V domains shown)
VL: DIQMTQSPSSLSASVGDRVTITCRASQSVSSAVAWYQQKPGKAPKLLIYSASSLYSGVPSRFSGSRSGTDFTLTISSLQPEDFATYYCQQYWAPITFGQGTKVEIK
VH: EVQLVESGGGLVQPGGSLRLSCAASGFNIYYYYMHWVRQAPGKGLEWVASIYSYSGSTYYADSVKGRFTISADTSKNTAYLQMNSLRAEDTAVYYCARYASYVGYYPWALDYWGQGTLVTVSS
notes: Fab converted into full-length IgG1, made in 293F cells
Kd [1]: 1450 pM
IC50, Wnt3a-induced Top Flash reporter (% ligand mediated) [2]: 123000 pM

B3: Fab H1 (Fab)
chain 1: EVQLVESGGGLVQPGGSLRLSCAASGFNISSSYIHWVRQAPGKGLEWVAYIYSSYGSTYYADSVKGRFTISADTSKNTAYLQMNSLRAEDTAVYYCARASWYALDYWGQGTLVTVSSASTKGPSVFPLAPSSKSTSGGTAALGCLVKDYFPEPVTVSWNSGALTSGVHTFPAVLQSSGLYSLSSVVTVPSSSLGTQTYICNVNHKPSNTKVDKKVEPKSC
chain 2: DIQMTQSPSSLSASVGDRVTITCRASQSVSSAVAWYQQKPGKAPKLLIYSASSLYSGVPSRFSGSRSGTDFTLTISSLQPEDFATYYCQQYWYGVAPITFGQGTKVEIKRTVAAPSVFIFPPSDSQLKSGTASVVCLLNNFYPREAKVQWKVDNALQSGNSQESVTEQDSKDSTYSLSSTLTLSKADYEKHKVYACEVTHQGLSSPVTKSFNRGECGGS
% of Fab phage in presence of 750 nM Fab [3]: 6.7%
decrease in Wnt 3a-induced transcriptional activity (TOP-FLASH luciferase reporter in MDA MB 231 cells, 400 nM Fab) [4]: > 70%
% of Fab phage in presence of 750 nM Fab [5]: 10.4%
% of Fab phage in presence of 750 nM Fab [6]: 12%
% population within the positive gate [7]: 99%
OD 450 [8]: 3.19
% of Fab phage in presence of 750 nM Fab [9]: 4.5%
% of Fab phage in presence of 750 nM Fab [10]: 4.5%
% of Fab phage in presence of 750 nM Fab [11]: 8.5%
% of Fab phage in presence of 750 nM Fab [12]: 4.3%
% population within the positive gate [13]: 94.7%
OD 450 [14]: 3.2
% of Fab phage in presence of 750 nM Fab [15]: 18.3%
% of Fab phage in presence of 750 nM Fab [16]: 4.7%
Kd (human Fzd1-Fc): 640 pM
Kd [17]: 540 pM
Kd (mouse Fzd2-Fc): 570 pM
Kd [18]: 537 pM
koff [18]: 0.000457 s⁻¹
kon [18]: 852000 M⁻¹ s⁻¹

B4: Fab E4 (Fab)
chain 1: EVQLVESGGGLVQPGGSLRLSCAASGFNLSYYSMHWVRQAPGKGLEWVASIYPSYGYTYYADSVKGRFTISADTSKNTAYLQMNSLRAEDTAVYYCARPSPGSYHGMDYWGQGTLVTVSSASTKGPSVFPLAPSSKSTSGGTAALGCLVKDYFPEPVTVSWNSGALTSGVHTFPAVLQSSGLYSLSSVVTVPSSSLGTQTYICNVNHKPSNTKVDKKVEPKSC
chain 2: DIQMTQSPSSLSASVGDRVTITCRASQSVSSAVAWYQQKPGKAPKLLIYSASSLYSGVPSRFSGSRSGTDFTLTISSLQPEDFATYYCQQSSYSLITFGQGTKVEIKRTVAAPSVFIFPPSDSQLKSGTASVVCLLNNFYPREAKVQWKVDNALQSGNSQESVTEQDSKDSTYSLSSTLTLSKADYEKHKVYACEVTHQGLSSPVTKSFNRGECGGS
% of Fab phage in presence of 750 nM Fab [3]: 5.9%
decrease in Wnt 3a-induced transcriptional activity (TOP-FLASH luciferase reporter in MDA MB 231 cells, 400 nM Fab) [4]: > 70%
% of Fab phage in presence of 750 nM Fab [5]: 7.4%
% of Fab phage in presence of 750 nM Fab [6]: 5.1%
% population within the positive gate [7]: 98.8%
OD 450 [8]: 3.27
% of Fab phage in presence of 750 nM Fab [9]: 4.6%
% of Fab phage in presence of 750 nM Fab [10]: 6.5%
% of Fab phage in presence of 750 nM Fab [11]: 21.9%
% of Fab phage in presence of 750 nM Fab [12]: 3.2%
% population within the positive gate [13]: 93.4%
OD 450 [14]: 3.24
% of Fab phage in presence of 750 nM Fab [15]: 10.5%
% of Fab phage in presence of 750 nM Fab [16]: 6.1%
Kd (human Fzd5-Fc): 1430 pM
Kd (human Fzd1-Fc): 330 pM
Kd [17]: 420 pM
Kd (mouse Fzd2-Fc): 650 pM
Kd (human Fzd8-Fc): 880 pM
Kd [18]: 422 pM
koff [18]: 0.000803 s⁻¹
kon [18]: 1.9e+06 M⁻¹ s⁻¹

Now from value to binder:

Kd [1]: 300 pM
B2: IgG G6 (antibody, V domains shown)
VL: B1 VL with W92Y, A93S, P94L, I95F
VH: EVQLVESGGGLVQPGGSLRLSCAASGFNIYYYSMHWVRQAPGKGLEWVAYISPSYGYTYYADSVKGRFTISADTSKNTAYLQMNSLRAEDTAVYYCARGYFYSWGGMDYWGQGTLVTVSS
notes: as for B1

IC50, Wnt3a-induced Top Flash reporter (% ligand mediated) [2]: 106000 pM
B5: IgG E8 (antibody, V domains shown)
VH: EVQLVESGGGLVQPGGSLRLSCAASGFNIYSSYIHWVRQAPGKGLEWVAYIYSYSGYTYYADSVKGRFTISADTSKNTAYLQMNSLRAEDTAVYYCARWYHPYWYASAIDYWGQGTLVTVSS
VL: DIQMTQSPSSLSASVGDRVTITCRASQSVSSAVAWYQQKPGKAPKLLIYSASSLYSGVPSRFSGSRSGTDFTLTISSLQPEDFATYYCQQVSGGGGLITFGQGTKVEIK
